Data published in US20260097129A1, “ANTIBODY-DRUG CONJUGATE COMPRISING DRUG AND ANTIBODY SPECIFICALLY BINDING TO GRP94 OR ANTIGEN-BINDING FRAGMENT THEREOF” (KOOKMIN UNIVERSITY INDUSTRY ACADEMY COOPERATION FOUNDATION, priority 2022, published 2026).

Tests used:
[1] = test system: HT29; test: Cell proliferation assay, real-time live cell imaging (Incucyte); type: cell-based, human; conditions: 133 nM K101.1, 33 nM and 133 nM K101.1-Sec-DM1, 62 hours, FIG. 9
Experimental: (§1) To investigate the effect of K101.1-Sec-DM1 on CRC cell growth in vitro, 1×10^4 HT29, LoVo, or 5×10^3 HCT116 CRC cells were seeded in the wells of a 96-well plate and incubated at 37° C. for 16 hours. The cells were then treated with either 133 nM of K101.1 or 33 nM and 133 nM of K101.1-Sec-DM1, with or without the presence of the drug. Cell growth was measured for 62 hours using the Incucyte SX1 live cell analysis instrument (Sartorius).

[2] = test system: LoVo; test: as above; type: cell-based, human; conditions: 133 nM K101.1, 33 nM and 133 nM K101.1-Sec-DM1, 62 hours, FIG. 9
Experimental: as §1

[3] = test system: HCT116; test: as above; type: cell-based, human; conditions: 133 nM K101.1, 33 nM and 133 nM K101.1-Sec-DM1, 62 hours, FIG. 9
Experimental: as §1

[4] = test system: HCT116 cells; test: Antibody internalization, FabFluor-pH Red labeling, Incucyte live cell imaging; type: cell-based, human
Experimental: Antibody internalization in HCT116 cells was measured using the FabFluor-pH Red Antibody Labeling Reagent (Sartorius, Gottingen, Germany) according to the manufacturer's instructions. […] HCT116 cells were seeded at a density of 10,000 cells/well in a 96-well culture plate and allowed to adhere overnight. The control IgG, K101.1, or trastuzumab (MedChemExpress, Princeton, NJ, USA) were individually labeled with the human FabFluor-pH Red antibody labeling reagent at a 1:3 molar ratio in PBS and incubated for 15 minutes. The labeled antibodies were added to the cell culture medium at a final concentration of 2 μg/ml. The plate was transferred to the Incucyte SX1 live cell analysis system (Sartorius) and images were captured with a 10× objective lens for 12 hours. The fluorescence intensity was individually measured for each image.
The internalization of antibodies in HCT116 cells was measured using the FabFluor-pH Red antibody labeling reagent (Sartorius, Göttingen, Germany) according to the manufacturer's instructions. […] However, after internalization of the reagent-labeled antibody, the fluorescence intensity increases under the acidic conditions inside endosomes and lysosomes. HCT116 cells were seeded at a density of 10,000 cells per well in a 96-well culture plate and allowed to attach overnight. […] Fluorescence intensity was then measured.

[5] = biological target: rhGRP94 (Homo sapiens, UniProt P14625); test: ELISA binding to immobilized rhGRP94; conditions: immobilized rhGRP94, FIG. 8
Experimental: A 96-well microplate was coated with 0.1 μg of rhGRP94 and incubated at 4° C. for 16 hours. After blocking the plate with 3% (w/v) BSA in PBS at 37° C. for 2 hours, the plate was incubated with 20 µg/mL of K101.1-Sec (SelT) at 37° C. for 2 hours. After washing the plate three times with PBS-T, it was incubated with HRP-conjugated anti-human Fc secondary antibody (1:5,000; Invitrogen) or HRP-conjugated anti-HA antibody (1:3,000; Bethyl Laboratories, Montgomery, TX, USA) at 37° C. for 1 hour. The color reaction was initiated with 100 μL of TMB substrate solution and terminated with 2N H2SO4 solution. Optical density was measured at 450 nm using a microplate reader.
A 96-well microplate was coated with 0.1 μg of rhGRP94 and incubated at 4° C. for 16 hours. After blocking with 3% (w/v) BSA in PBS at 37° C. for 2 hours, the plate was incubated with 20 μg/mL of K101.1-Sec (SelT) at 37° C. for 2 hours. After washing three times with PBS-T, the plate was incubated with HRP-conjugated anti-human Fc secondary antibody (1:5,000; Invitrogen) at 37° C. for 1 hour. The color reaction was initiated with 100 μL of TMB substrate solution and terminated with 2N H2SO4 solution. Optical density was measured at 450 nm using a microplate reader.

[6] = biological target: rmGRP94 (Mus musculus, UniProt P08113); test: ELISA binding to immobilized rmGRP94; conditions: immobilized rmGRP94, FIG. 8
Chain of rmGRP94 (P08113 22-802): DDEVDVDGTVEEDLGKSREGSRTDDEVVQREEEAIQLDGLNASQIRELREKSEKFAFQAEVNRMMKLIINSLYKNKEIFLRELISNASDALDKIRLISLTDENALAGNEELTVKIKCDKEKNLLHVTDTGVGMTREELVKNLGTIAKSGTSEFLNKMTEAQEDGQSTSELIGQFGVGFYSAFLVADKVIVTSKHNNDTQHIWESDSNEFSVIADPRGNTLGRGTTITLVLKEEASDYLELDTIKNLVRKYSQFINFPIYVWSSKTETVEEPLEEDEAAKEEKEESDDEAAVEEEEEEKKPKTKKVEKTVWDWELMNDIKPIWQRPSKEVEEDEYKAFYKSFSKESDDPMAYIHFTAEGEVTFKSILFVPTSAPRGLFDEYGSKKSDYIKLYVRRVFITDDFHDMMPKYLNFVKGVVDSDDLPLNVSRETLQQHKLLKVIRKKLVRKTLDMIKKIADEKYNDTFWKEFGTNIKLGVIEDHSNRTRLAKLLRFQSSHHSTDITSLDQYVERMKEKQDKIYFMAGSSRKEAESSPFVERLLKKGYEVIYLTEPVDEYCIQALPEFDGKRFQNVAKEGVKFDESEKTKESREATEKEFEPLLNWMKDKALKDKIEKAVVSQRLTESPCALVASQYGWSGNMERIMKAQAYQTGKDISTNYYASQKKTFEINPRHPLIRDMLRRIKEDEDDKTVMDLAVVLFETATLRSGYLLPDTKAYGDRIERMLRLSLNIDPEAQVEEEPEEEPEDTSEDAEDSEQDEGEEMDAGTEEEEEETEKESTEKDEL

Chain of rhGRP94 (P14625 22-803): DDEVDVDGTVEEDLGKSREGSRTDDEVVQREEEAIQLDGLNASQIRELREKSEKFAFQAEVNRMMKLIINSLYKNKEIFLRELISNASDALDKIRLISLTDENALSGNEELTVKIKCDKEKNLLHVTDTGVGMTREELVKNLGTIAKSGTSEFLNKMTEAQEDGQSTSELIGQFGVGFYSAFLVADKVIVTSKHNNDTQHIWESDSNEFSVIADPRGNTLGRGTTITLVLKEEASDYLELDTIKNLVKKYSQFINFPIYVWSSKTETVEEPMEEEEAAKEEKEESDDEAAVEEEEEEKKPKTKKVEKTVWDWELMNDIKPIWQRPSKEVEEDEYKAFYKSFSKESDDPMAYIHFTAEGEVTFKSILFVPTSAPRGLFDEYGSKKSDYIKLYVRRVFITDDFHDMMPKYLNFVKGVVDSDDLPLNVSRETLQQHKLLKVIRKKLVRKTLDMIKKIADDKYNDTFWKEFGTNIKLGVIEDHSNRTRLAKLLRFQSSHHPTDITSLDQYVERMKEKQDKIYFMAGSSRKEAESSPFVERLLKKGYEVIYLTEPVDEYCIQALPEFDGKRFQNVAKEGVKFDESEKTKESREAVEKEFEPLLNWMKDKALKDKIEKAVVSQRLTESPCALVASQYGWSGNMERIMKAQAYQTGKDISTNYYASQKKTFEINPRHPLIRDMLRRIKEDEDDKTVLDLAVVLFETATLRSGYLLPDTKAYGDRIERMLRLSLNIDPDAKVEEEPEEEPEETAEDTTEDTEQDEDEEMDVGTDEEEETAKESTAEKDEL

B1: K101.1: GRP94-specific IgG antibody, CDRs SEQ ID NO: 1-6, VH SEQ ID NO: 7, VL SEQ ID NO: 8 (antibody, V domains shown)
VH: EVQLLESGGGLVQPGGSLRLSCAASGFTFSNYSMSWVRQAPGKGLEWVSGIYYGSGNKYYADSVKGRFTISRDNSKNTLYLQMNSLRAEDTAVYYCAKNLASFDYWGQGTLVTVSS
VL: QSVLTQPPSASGTPGQRVTISCSGSSSNIGSNSVNWYQQLPGTAPKLLIYSNSHRPSGVPDRFSGSKSGTSASLAISGLRSEDEADYYCGTWDSSLSGYVFGGGTKLTVL
- effect on CRC cell growth [1]: little to no effect
- effect on CRC cell growth [2]: little to no effect
- effect on CRC cell growth [3]: little to no effect
- antibody internalization (FabFluor fluorescence intensity) ([4]; labeled antibody 2 μg/mL, imaged for 10 hours, Example 2, FIG. 10): exhibited stronger internalization than trastuzumab
- antibody internalization (FabFluor red fluorescence intensity) ([4]; labeled antibody 2 μg/ml, imaged for 12 hours, Example 1, FIG. 1): promoted internalization more efficiently than trastuzumab

B2: K101.1-Sec-DM1 (conjugate)
heavy: EVQLLESGGGLVQPGGSLRLSCAASGFTFSNYSMSWVRQAPGKGLEWVSGIYYGSGNKYYADSVKGRFTISRDNSKNTLYLQMNSLRAEDTAVYYCAKNLASFDYWGQGTLVTVSS
light: QSVLTQPPSASGTPGQRVTISCSGSSSNIGSNSVNWYQQLPGTAPKLLIYSNSHRPSGVPDRFSGSKSGTSASLAISGLRSEDEADYYCGTWDSSLSGYVFGGGTKLTVL
modifications: non-natural residues; left off: small tags and cut ends; large carriers
- antigen binding by ELISA compared with parent antibody K101.1 [5]: no significant difference in antigen binding
- effect on CRC cell growth [1]: significantly and more strongly inhibited the growth
- effect on CRC cell growth [2]: significantly and more strongly inhibited the growth
- effect on CRC cell growth [3]: significantly and more strongly inhibited the growth
- antigen binding by ELISA compared with parent antibody K101.1 [6]: no significant difference in antigen binding
